Patent US20240409647A1 (SINOMAB BIOSCIENCE, published 2024)

What was measured:
[1] = molecular target: T1, human IL-17 receptor subunit C (human, UniProt Q8NAC3-2 21-467, limits assumed); assay: ELISA, coated receptor; SM17 at 0.4 µg/mL; well 1
T1 construct: also called IL17RC; hIL17RC
T1 sequence (looked up): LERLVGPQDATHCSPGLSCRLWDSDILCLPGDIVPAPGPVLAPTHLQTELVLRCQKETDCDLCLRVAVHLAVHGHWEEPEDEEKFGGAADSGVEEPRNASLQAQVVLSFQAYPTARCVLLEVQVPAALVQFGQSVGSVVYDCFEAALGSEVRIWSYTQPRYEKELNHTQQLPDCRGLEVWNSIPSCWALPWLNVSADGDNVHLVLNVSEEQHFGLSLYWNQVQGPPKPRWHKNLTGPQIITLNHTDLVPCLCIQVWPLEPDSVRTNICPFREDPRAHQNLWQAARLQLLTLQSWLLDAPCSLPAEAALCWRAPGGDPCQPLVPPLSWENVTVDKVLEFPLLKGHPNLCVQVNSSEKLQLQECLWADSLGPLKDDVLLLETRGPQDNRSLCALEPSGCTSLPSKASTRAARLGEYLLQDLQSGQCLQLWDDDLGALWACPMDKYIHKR

[2] = molecular target: T2, human IL-17RB protein (recombinant, R&D systems) (human); assay: ELISA, coated receptor; SM17 at 0.4 µg/mL; well 1
T2 construct: Bought protein; also called hIL17RB
T2 sequence (Q9NRM6 whole entry, looked up): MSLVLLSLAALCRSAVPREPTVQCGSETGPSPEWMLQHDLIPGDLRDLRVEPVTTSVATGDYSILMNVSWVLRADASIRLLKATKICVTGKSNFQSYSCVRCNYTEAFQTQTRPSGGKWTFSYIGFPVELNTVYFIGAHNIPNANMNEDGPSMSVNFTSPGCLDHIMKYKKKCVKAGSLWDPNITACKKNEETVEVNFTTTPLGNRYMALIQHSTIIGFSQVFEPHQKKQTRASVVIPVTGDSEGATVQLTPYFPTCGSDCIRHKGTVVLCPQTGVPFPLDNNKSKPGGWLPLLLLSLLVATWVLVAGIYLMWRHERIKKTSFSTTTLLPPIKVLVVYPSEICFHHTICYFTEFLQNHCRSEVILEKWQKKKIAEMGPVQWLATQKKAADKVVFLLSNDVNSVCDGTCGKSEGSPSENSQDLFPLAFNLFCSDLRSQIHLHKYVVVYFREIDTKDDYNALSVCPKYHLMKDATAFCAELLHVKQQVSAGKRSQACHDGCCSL

[3] = molecular target: T3, human IL-17 receptor subunit D (human, UniProt Q8NFM7 28-299, limits assumed); assay: ELISA, coated receptor; SM17 at 0.4 µg/mL; well 1
T3 construct: also called IL17RD; hIL 17RD
T3 sequence (looked up): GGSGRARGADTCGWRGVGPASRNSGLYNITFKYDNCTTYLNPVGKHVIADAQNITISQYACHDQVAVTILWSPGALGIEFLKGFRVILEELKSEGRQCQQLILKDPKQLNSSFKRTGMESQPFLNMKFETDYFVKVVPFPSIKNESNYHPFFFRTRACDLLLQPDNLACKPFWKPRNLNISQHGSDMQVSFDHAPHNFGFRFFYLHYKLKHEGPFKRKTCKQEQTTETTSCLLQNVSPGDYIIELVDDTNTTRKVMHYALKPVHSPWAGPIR

[4] = molecular target: T4, human IL-17 receptor subunit A (human, UniProt Q96F46 33-320); assay: ELISA, coated receptor; SM17 at 0.4 µg/mL; well 1
T4 construct: also called IL17RA; hIL17RA

[5] = molecular target: T5, human IL-17 receptor subunit E (human, UniProt Q8NFR9 24-454, limits assumed); assay: ELISA, coated receptor; SM17 at 0.4 µg/mL; well 1
T5 construct: also called hIL17RE
T5 sequence (looked up): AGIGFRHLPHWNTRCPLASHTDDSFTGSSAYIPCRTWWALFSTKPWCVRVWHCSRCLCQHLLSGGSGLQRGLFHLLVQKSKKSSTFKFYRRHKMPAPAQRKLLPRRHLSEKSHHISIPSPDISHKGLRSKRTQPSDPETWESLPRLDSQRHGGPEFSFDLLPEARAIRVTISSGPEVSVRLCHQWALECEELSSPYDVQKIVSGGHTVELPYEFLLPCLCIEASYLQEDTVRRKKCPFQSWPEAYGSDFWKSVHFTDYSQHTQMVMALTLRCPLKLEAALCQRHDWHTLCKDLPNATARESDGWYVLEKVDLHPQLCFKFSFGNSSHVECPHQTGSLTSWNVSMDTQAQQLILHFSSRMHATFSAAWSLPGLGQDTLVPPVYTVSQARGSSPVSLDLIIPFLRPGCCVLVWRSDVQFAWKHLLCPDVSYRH

[6] = molecular target: T1, human IL-17 receptor subunit C; assay: ELISA, coated receptor; SM17 at 0.00064 µg/mL; well 1
[7] = molecular target: T2, human IL-17RB protein (recombinant, R&D …); assay: as above
[8] = molecular target: T3, human IL-17 receptor subunit D; assay: as above
[9] = molecular target: T4, human IL-17 receptor subunit A; assay: as above
[10] = molecular target: T5, human IL-17 receptor subunit E; assay: as above
[11] = molecular target: T2, human IL-17RB protein (recombinant, R&D …); assay: ELISA, coated receptor; SM17 at 0.08 µg/mL; well 1
[12] = molecular target: T3, human IL-17 receptor subunit D; assay: ELISA, coated receptor; SM17 at 0.08 µg/mL; well 1
[13] = molecular target: T4, human IL-17 receptor subunit A; assay: ELISA, coated receptor; SM17 at 0.08 µg/mL; well 1
[14] = molecular target: T5, human IL-17 receptor subunit E; assay: ELISA, coated receptor; SM17 at 0.08 µg/mL; well 1

- OD 450 nm Absorption [1]: 0.25 OD450
- OD 450 nm Absorption [2]: 1.26 OD450
- OD 450 nm Absorption [3]: 0.22 OD450
- OD 450 nm Absorption [4]: 0.21 OD450
- OD 450 nm Absorption [5]: 0.08 OD450
- OD 450 nm Absorption [6]: 0.13 OD450
- OD 450 nm Absorption [7]: 0.13 OD450
- OD 450 nm Absorption [8]: 0.08 OD450
- OD 450 nm Absorption [9]: 0 OD450
- OD 450 nm Absorption [10]: 0.09 OD450
- OD 450 nm Absorption [11]: 0.79 OD450
- OD 450 nm Absorption [12]: 0.03 OD450
- OD 450 nm Absorption [13]: 0 OD450
- OD 450 nm Absorption [14]: -0.04 OD450
B1: SM17 (antibody, human IgG4 S228P, kappa, V domains shown)
VH: QVQLVQSGAEVKKPGASVKVSCKASGYTFISYWMNWVRQAPGQGLEWMGRIDPYDSEIQYNQKFKDRVTMTRDTSISTAYMELSRLRSDDTAVYYCARSGGFDWFAYWGQGTLVTVSS
VL: DIQMTQSPSSLSASVGDRVTITCRASENINSNLAWYQQKPGKAPKLLLYDVTNLADGVPSRFSGSGSGTDYTLTISSLQPEDFATYYCQHFWGPPYTFGGGTKVEIKR
notes: other paragraphs and claim 15 call the same entries VH and VL; also called humanized anti-IL17RB monoclonal antibody
